Measured values reported in the supplement of paper PMC12764529.
± gives the half width of the 95% confidence interval.

Key:
[1] = folding stability dG unfold from chymotrypsin proteolysis; higher = more stable
Outline: (§1)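 Designed mini-proteins with no cysteine and under 80 residues were kept only if AlphaFold2 dimer inter-PAE was above 15. In a PA-tagged cDNA display construct, they were digested with trypsin and chymotrypsin and then sequenced. K50 was inferred by Bayesian fitting of counts, and unfolding free energy was derived per protease or combined against a sequence-predicted unfolded-state K50 and a shared folded-state K50.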

[2] = folding stability dG unfold (combined trypsin and chymotrypsin); higher = more stable
Outline: as §1

[3] = folding stability dG unfold from trypsin proteolysis; higher = more stable
Outline: as §1

| Sequence | folding stability dG unfold [1] [kcal/mol] | folding stability dG unfold [2] [kcal/mol] | folding stability dG unfold [3] [kcal/mol] |
| --- | --- | --- | --- |
| SAGGSAGGSAGGSVTISYNPETGTVVISSPKNKKIITINAENYTPEEILEKAKEAGIDLSAGGSAGGSAGGS [r4_49_TrMRF] | 2.02 ± 0.056 | 1.64 ± 0.045 | 0.613 ± 0.035 |
| SAGGSAGGSAGGSVTYEADEVEIKEFTDPSTGKKYVTVTFPGPGGPVTTTLPADLIEELSAGGSAGGSAGGS [r10_447_JUSTAS] | 1.48 ± 0.03 | 1.33 ± 0.093 | 0.96 ± 0.043 |
| SAGGSAGGSAGGSVWIRMPPSKIKDLLDKFGIEPIEIEKMPPGWVYIRITPDALKEAGVFSAGGSAGGSAGG [r7_587_TrROS] | 0.887 ± 0.3 | 0.946 ± 0.16 | 0.839 ± 0.14 |
| SAGGSAGGSAGGSWITFRIPEGNPEFIEELARGFGIKPKRINPNRGTITIKLPPGAKIVSAGGSAGGSAGGS [r4_3_TrROS] | 0.645 ± 0.096 | 0.641 ± 0.11 | 0.474 ± 0.12 |
| SAGGSAGGSAGGSWKIDKFTSIERTDGGYVIRIRMENPDGPPMKQTFYFPPGDDELANISAGGSAGGSAGGS [r4_253_TrROS] | 0.242 ± 0.3 | 0.344 ± 0.27 | 0.285 ± 0.21 |
| SAGGSAGGSAGGSWLEFTFIDPGYGWIISTMKIEINPNGNLNMDMEMVPLKPADDPEDASAGGSAGGSAGGS [r4_178_TrROS] | 3.32 ± 0.099 | 2.9 ± 0.16 | 2.38 ± 0.13 |
| SAGGSAGGSAGGTGPDTPVTIETTVESVVYEGPEVKVVETFEKKITVTIPPTANPEKVSLSAGGSAGGSAGG [r7_591_JUSTAS] | -1.06 ± 0.31 | < -1 | -0.81 ± 0.43 |
| SAGGSAGGSAGGTGPPPVKTLVIVANWTEEQAEALKKAFPDQEVTVYEIPGLPKTVAVVSSAGGSAGGSAGG [r17_254_TrMRF] | 1.42 ± 0.086 | 1.16 ± 0.17 | 0.833 ± 0.03 |
| SAGGSAGGSAGGTIEELVKAGKTVKVRVRLKNGETLEVEIRPDEVVEFPNIEEIEVEEVSAGGSAGGSAGGS [r10_700_TrROS_Hall] | 1.86 ± 0.026 | 1.51 ± 0.05 | 0.784 ± 0.016 |
| SAGGSAGGSAGGTPITDEEFRDLPDDVKLVFENGEVAYVPRDPLKVPIGADKTVTAEPVPSAGGSAGGSAGG [r7_643_TrMRF] | 0.388 ± 0.035 | 0.801 ± 0.056 | 1.2 ± 0.059 |
| SAGGSAGGSAGGTVTFFEENEFVIDVPDPLTGRPIRIEVPGDPNKPEEIEARAEELRLSSAGGSAGGSAGGS [r10_379_JUSTAS] | -0.157 ± 0.096 | 0.0609 ± 0.072 | 0.187 ± 0.066 |
| SAGGSAGGSAGGWAFMWVIEIEMPPEQMPPEDMKKFPNMRIEIEPYWVPIKIDPENGELRSAGGSAGGSAGG [r17_310_TrROS] | 2.68 ± 0.04 | 2.5 ± 0.19 | 1.71 ± 0.075 |
| SAGGSAGGSAGGWDEIKDILREAGWPVKNVEVQWIPNPENGKPMNSITVSYPDGKKWTIMSAGGSAGGSAGG [r7_337_TrROS] | 0.0542 ± 0.19 | 0.0642 ± 0.098 | -0.195 ± 0.13 |
| SAGGSAGGSAGGWFYKRDPDGKPLEPRPVVVIKISYEISYDADGGWKLKLNISIYPVYWISAGGSAGGSAGG [r7_572_TrROS] | 5.01 ± 0.15 | 4.77 ± 0.31 | 3.58 ± 0.15 |
| SAGGSAGGSAGGWIMVPIEIKVDLKWGPNGQHEIETVPILIIIRIPPPPVPEEQAEKNNGSAGGSAGGSAGG [r11_318_TrROS] | 2.68 ± 0.07 | 2.81 ± 0.19 | 2.89 ± 0.15 |
| SAGGSAGGSAGGWNIQVNPDNLKPGKEYRISITHPNGPPIPFEVRLKADGDGDWEFKIESAGGSAGGSAGGS [r10_390_TrROS] | 0.183 ± 0.12 | 0.134 ± 0.091 | -0.0699 ± 0.059 |
| SAGGSAGGSAGGWNYIIFTIRYEFEYKDPNGKTMKHEVEITIIIPIPPIKRDEDGKYKLSAGGSAGGSAGGS [r10_168_TrROS] | 3.35 ± 0.17 | 2.79 ± 0.28 | 2.31 ± 0.17 |
| SAGGSAGGSAGGWYRIEIEFGNKPREYVVPGAPPDEAADMLQDPGIKNVKVEPLPPEQLKSAGGSAGGSAGG [r7_502_TrROS] | 0.537 ± 0.16 | 0.174 ± 0.25 | -0.817 ± 0.65 |
| SAGGSAGGSAGHIPIIFQFEFEHYDPDDGKPKEHRWVIVIEFDGNGIKNIRIIPKEDAKKLLSAGGSAGGSA [r18_406_TrROS] | 2.28 ± 0.047 | 2.25 ± 0.14 | 2.31 ± 0.085 |
| SAGGSAGGSAGIITIWFPPDEEFRDFIENLPGPIEDVNIEPRNPGWIKVTLTMRMPPDQVSAGGSAGGSAGG [r11_143_TrROS] | 0.864 ± 0.17 | 0.871 ± 0.17 | 0.703 ± 0.07 |
| SAGGSAGGSAGIKIEWEPNPNGSWRMKIEIPNPNGNPKKIEVWANPNGKIREDEAKEILNSAGGSAGGSAGG [r11_759_TrROS] | 1.18 ± 0.24 | 1.02 ± 0.39 | 0.707 ± 0.12 |

| Sequence | folding stability dG unfold [1] [kcal/mol] | folding stability dG unfold [2] [kcal/mol] | folding stability dG unfold [3] [kcal/mol] |
| --- | --- | --- | --- |
| SAGGSAGGSAGIKIVAPSPELADMIAKEIAKEFGLPGKIKDIEIEVIPYKPTPNGGYQPYSAGGSAGGSAGG [r17_237_TrROS] | -0.363 ± 0.75 | -0.383 ± 0.81 | -0.14 ± 0.26 |
| SAGGSAGGSAGIVIKAKSPDEAVEALKKLFEKTGKADINIKPVKVLPDGNVLVEAGIDNKSAGGSAGGSAGG [r17_430_TrMRF] | -1.43 ± 0.61 | -0.689 ± 0.34 | -0.403 ± 0.054 |
| SAGGSAGGSAGIVIPLDGRPIVIDMYPNGYMRIEVEPPNGKKKTRTFPGAPIEDILKAIKSAGGSAGGSAGG [r11_934_TrROS] | -0.0199 ± 0.12 | -0.204 ± 0.28 | -0.695 ± 0.71 |
| SAGGSAGGSAGKAESGDNAITLTLPGGHKVTIPNLPPNEPVWVKLNNRWVKIGDLKVNPKSAGGSAGGSAGG [r11_16_TrMRF] | 0.227 ± 0.25 | 0.196 ± 0.18 | -0.131 ± 0.16 |
| SAGGSAGGSAGKDKGQKEVPEINIRIEPVNFHWEYDKGNGKPKSIHFMFKIRYPNGREITSAGGSAGGSAGG [r11_890_TrROS] | 0.674 ± 0.29 | 1.15 ± 0.28 | 1.24 ± 0.1 |
| SAGGSAGGSAGKEIIKNIPKGVKVLKIEPLPGKSGTYVKIEVEFPDPNGVKHRLTFIAPESAGGSAGGSAGG [r17_140_TrMRF] | 1.34 ± 0.14 | 1.16 ± 0.23 | 0.67 ± 0.15 |
| SAGGSAGGSAGKEKTITVLLEVDGYLVVAEVKLNEDGSLEITSVKVIKLPKPKPSPEALKSAGGSAGGSAGG [r11_843_TrROS_Hall] | 0.516 ± 0.033 | 0.907 ± 0.21 | 1.07 ± 0.048 |
| SAGGSAGGSAGKETITITLVVTDENGEKYLIRVEAKIDPKTNKITITKIEIIRLDDLKKLSAGGSAGGSAGG [r11_777_TrROS_Hall] | 1.72 ± 0.058 | 1.75 ± 0.41 | 1.12 ± 0.093 |
| SAGGSAGGSAGKFKIKVFTHPDGYALALIEVPLGDKPVLILTLIKFPEDGNAEAETFIFPSAGGSAGGSAGG [r11_555_TrMRF] | 3.25 ± 0.077 | 2.84 ± 0.13 | 2.06 ± 0.053 |
| SAGGSAGGSAGKFKLKIKEVHWRENPNGYEQVKVEIKIPGEEKKIWFPPGMSIDQILDQLSAGGSAGGSAGG [r11_1056_TrROS] | 1.13 ± 0.18 | 0.732 ± 0.12 | 0.415 ± 0.081 |
| SAGGSAGGSAGKIEAFPGKNTVLLKISIPRRDPNSDSIYTLHAVIPATPEQAKKFLELGISAGGSAGGSAGG [r11_389_TrMRF] | 0.899 ± 0.14 | 0.97 ± 0.1 | 0.89 ± 0.041 |
| SAGGSAGGSAGKIKVEKDKKTNEYRVTIELFDKNGKPVKKIEITVKKEDLPKIKELLKKLSAGGSAGGSAGG [r11_77_TrROS_Hall] | 3.6 ± 0.1 | 3.4 ± 0.076 | 2.96 ± 0.069 |
| SAGGSAGGSAGKIPEIIKKTNAVEKDGKIFLGIKTDGKYYLIELEKKTLKIKKIEPFPDKSAGGSAGGSAGG [r11_808_TrMRF] | 0.776 ± 0.12 | 0.488 ± 0.085 | -0.135 ± 0.14 |
| SAGGSAGGSAGKIVIVVDEDGNYTLKVNGKTYVFKTPEEAKAAAEELKKAGIEIEIVEVPSAGGSAGGSAGG [r17_35_TrROS_Hall] | 4.96 ± 0.16 | 4.85 ± 0.17 | 3.6 ± 0.21 |
| SAGGSAGGSAGKIWIYNPENGWIFEISIQPHPMPNDDGEPQWMFSIDVEVYPPGKPGQPISAGGSAGGSAGG [r11_531_TrROS] | 4.1 ± 0.066 | 3.59 ± 0.065 | 2.59 ± 0.079 |
| SAGGSAGGSAGKIYIVKLPNETIEIEFEGTEEEAIDFAIKELEKLFPKPIPKDDIIILGGSAGGSAGGSAGG [r11_1028_TrMRF] | 1.65 ± 0.043 | 1.71 ± 0.14 | 1.76 ± 0.074 |
| SAGGSAGGSAGKKIKLPKELKGKKIEVKEVEIEVEVNGKKYKFKAKIVKFDGKIIAIELESAGGSAGGSAGG [r11_21_TrROS_Hall] | 3.31 ± 0.055 | 2.98 ± 0.17 | 1.36 ± 0.069 |
| SAGGSAGGSAGKKIKVKIEVVYTDEDGNKHKVEMEKEIELKPGDKITLPPEAITRVEILPSAGGSAGGSAGG [r11_664_TrROS_Hall] | 1.95 ± 0.12 | 1.57 ± 0.19 | 0.832 ± 0.17 |
| SAGGSAGGSAGKKITIELPEGVKVYKLPNENDYIIVEDEKTKEKYIFKIKDGKVELIEKLSAGGSAGGSAGG [r11_1036_TrROS_Hall] | 1.86 ± 0.15 | 1.47 ± 0.14 | 1.01 ± 0.054 |
| SAGGSAGGSAGKKKGKKPKKIKVKKIKLIVKDKETNEYYEKEITVNKDGTLTIKVKKLKKSAGGSAGGSAGG [r11_883_TrROS_Hall] | 3.07 ± 0.089 | 2.75 ± 0.1 | 1.85 ± 0.083 |
| SAGGSAGGSAGKKKKKKLVRVRITYKNGKKKEFVFKTKEEAEKALKEEFNIEKIEIEEIPSAGGSAGGSAGG [r17_508_TrROS_Hall] | 3.66 ± 0.068 | 3.43 ± 0.16 | 2.84 ± 0.1 |
